Target: Recombinant stabilized SARS-CoV-2 spike for ELISA (Wuhan) (SARS-CoV-2, Wuhan, UniProt P0DTC2, stabilised)
Assay: ELISA
Settings: both partners purified

B1: P008_60 IgG (antibody, V domains shown)
VH: EVQLVESGGGVVQPGRSLRLTCAASGFIFSSYGMHWVRQAPGKGLEWVAVISYDGSYKYYADSVKGRFTISRDNSKNTLYLQMNSLRAEDTAVYYCTKADYYDFWSGYQKTYYYYMDVWGKGTTVTISS
VL: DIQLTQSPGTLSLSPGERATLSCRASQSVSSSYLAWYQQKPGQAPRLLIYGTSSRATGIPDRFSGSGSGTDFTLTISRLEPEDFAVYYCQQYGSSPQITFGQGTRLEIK
notes: also called mAb P008_60; P008_060; source: HEK-293F, co-transfected heavy and light plasmids, purified (protein G)
- binding result: binds

From paper PMC9365860 (Cell Reports, 2022)
